How the values were obtained:
c-JMJD5 [1] = molecular target: T1, c-JMJD5 (Homo sapiens, UniProt Q8N371); conditions: fluorescence polarization, c-JMJD5, previous report; read-out: binding affinity; cited from earlier work
T1 construct: JMJD5 (residues 183–416, c-JMJD5) lacking the N-terminal domain; made in house
Description: The binding affinities of various lysine binding domains, such as Chromodomains, PHD fingers, Tudor domains, etc., to lysine residues with and without methylation has been very well established. It is also true that the difference in binding affinity of Tudor domains to arginine with and without methylation is also marginal. The question here is whether c-JMJD5 or JMJD7 has different binding affinity depending on the methylation status of arginine. From the complex structure shown above, c-JMJD5 contains a binding pocket for methylarginine that is similar to those of Tudor domains (Fig ... || Clipping of histone tails, high turnover rates of histone in non-proliferating cells, arginine demethylation, and Pol II elongation control are highly contentious subjects in the transcription and epigenetic fields. Our previous novel discovery of clipping of arginine methylated histone tails by JMJD5 and JMJD7 sheds light on how these topics are intrinsically coupled. Data presented here not only reveal the underlying mechanism of novel enzymatic activities of JMJD5 and JMJD7, but also further corroborate our previous findings. Shortly after the release of our report, Shen et al. also repo ...

JMJD7 = molecular target: T2, JMJD7 (Mus musculus, UniProt P0C872); assay: Biacore surface plasmon resonance binding of JMJD7 to immobilised bulk histone or synthetic peptides; conditions: C-terminal biotin peptide on SA chip or bulk histone on CM5 chip, JMJD7 injected, room temperature
T2 construct: The final model contains residues 1–316; GST (N, cleaved yes); made in house
Protocol: (§1) Data were integrated and scaled using the HKL2000 suite of programs.
(§2) 10 μg/ml calf bulk histone was dissolved in coating buffer (50 mM sodium acetate [pH 5.0]) and coated onto a CM5 chip (GE Healthcare). […] For peptides, 2 μg/ml synthetic peptide with C-terminal biotin was dissolved in PBS and coated onto a streptavidin coated SA chip (GE Healthcare). […] Similar procedures were carried out for JMJD5. All experiments are carried out at room temperature.

c-JMJD5 [2] = molecular target: T1, c-JMJD5; assay: Biacore surface plasmon resonance binding of c-JMJD5 to immobilised bulk histone or synthetic peptides; conditions: C-terminal biotin peptide on SA chip or bulk histone on CM5 chip, c-JMJD5 injected, room temperature
Protocol: as §1, §2

T1 sequence (Q8N371 183-416): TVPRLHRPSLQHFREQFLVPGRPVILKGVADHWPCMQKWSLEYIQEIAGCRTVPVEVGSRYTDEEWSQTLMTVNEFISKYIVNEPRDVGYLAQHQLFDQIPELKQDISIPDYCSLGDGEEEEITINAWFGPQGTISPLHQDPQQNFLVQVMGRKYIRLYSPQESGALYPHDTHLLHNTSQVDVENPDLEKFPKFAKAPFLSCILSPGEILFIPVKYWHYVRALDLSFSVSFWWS
T2 sequence (P0C872 whole entry, the tested form may be a part): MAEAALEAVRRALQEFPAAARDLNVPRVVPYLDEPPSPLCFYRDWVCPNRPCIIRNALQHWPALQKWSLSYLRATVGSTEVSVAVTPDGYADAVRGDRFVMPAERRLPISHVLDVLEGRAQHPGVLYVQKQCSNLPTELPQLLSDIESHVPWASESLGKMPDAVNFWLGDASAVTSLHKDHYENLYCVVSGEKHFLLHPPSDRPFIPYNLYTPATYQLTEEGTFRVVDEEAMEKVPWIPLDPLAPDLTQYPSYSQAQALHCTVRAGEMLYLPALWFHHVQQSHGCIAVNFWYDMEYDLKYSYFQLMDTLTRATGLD

Which results are given for pH3: native form of H3 peptide (1–21)?
Kd (c-JMJD5 [1]): ~7 µM; binding in words (SPR sensorgram) (JMJD7): non-specific binding; binding in words (SPR sensorgram) (c-JMJD5 [2]): non-specific binding

Source: paper PMC5818494, “Specific Recognition of Arginine Methylated Histone Tails by JMJD5 and JMJD7” (Scientific Reports, 2018)
